Test results from article PMC10054925 (bioRxiv, 2023).

Biological target: the molecule itself
Experiment: SEC

B1: Vibrio cholerae HlyU (VcHlyU), transcriptional activator of hlyA (natural protein)
chain: MPYLKGAPMNLQEMEKNSAKAVVLLKAMANERRLQILCMLLDNELSVGELSSRLELSQSALSQHLAWLRRDGLVNTRKEAQTVFYTLSSTEVKAMIELLHRLYCQANQ
- stoichiometry N: 2
